Measurements published in patent US20250019429A1 (Janssen / Centocor, published 2025).

Columns and labels:
recombinant human TNFα [1] = molecular target: T1, recombinant human TNFα (human, UniProt P01375 77-233); assay: cell-based or functional assay
recombinant human TNFα [2] = molecular target: T1, recombinant human TNFα; assay: inhibition of 125I-TNFα binding to plate-coated p55-sf2 by hybridoma supernatant
Procedure: (§1) Assay for Inhibition of TNF Binding to Receptor. […] 50:1 of p55-sf2 at 0.5: g/ml in PBS was added to Optiplates to coat the wells during a one-hour incubation at 37° C. Serial dilutions of the eight TNV cell supernatants were prepared in 96-well round-bottom plates using PBS/0.1% BSA as diluent. […] The mixture was preincubated for one hour at RT. […] After 2 hrs at RT, Optiplates were washed three times with PBS-Tween. […] of Microscint-20 was added and the cpm bound determined using the TopCount gamma counter.

recombinant human TNFα [3] = molecular target: T1, recombinant human TNFα; assay: competition: mAb in hybridoma supernatant preincubated with 125I-TNFα (5 ng/ml), then 125I-TNFα bound to plate-coated p55-sf2 counted as cpm
Procedure: Although eight TNV mAb samples were tested in these experiments, for simplicity three of the mAbs that were shown by DNA sequence analyses to be identical to one of the other TNV mAbs (see Section 5.2.2) are not shown here. Each sample was tested in duplicate. The results shown are representative of two independent experiments.
as §1

neutralizing TNFα bioactivity (recombinant human TNFα [1]) | fold better at blocking TNF binding, against TNV118 and TNV14 (recombinant human TNFα [2]) [fold] | IC50 (read off the curve) (recombinant human TNFα [3]) [ng/mL] | Binder
4 fold (against TNV14) | ~4 | ~4 | TNV148 (antibody, human IgG1, kappa, V domains shown, Hybridoma-derived fully human IgG1 kappa; also called GenTNV148.26.12; C420A) VH: QVQLVESGGGVVQPGRSLRLSCAASGFIFSSYAMHWVRQAPGNGLEWVAFMSYDGSNKKYADSVKGRFTISRDNPKNTLYLQMNSLRAEDTAVYYCARDRGIAAGGNYYYYGMDVWGQGTTVTVSS VL: EIVLTQSPATLSLSPGERATLSCRASQSVYSYLAWYQQKPGQAPRLLIYDASNRATGIPARFSGSGSGTDFTLTISSLEPEDFAVYYCQQRSNWPPFTFGPGTKVDIKR
 | ~4 |  | TNV86 (antibody, human IgG1, kappa, V domains shown, also called GenTNV86.14.34; C417A) VH: QVQLVESGGGVVQPGRSLRLSCAASGFIFSSYAMHWVRQAPGNGLEWVAFMSYDGSNKKYADSVKGRFTISRDNPKNTLYLQMNSLRAEDTAVYYCARDRGIAAGGNYYYYGMDVWGQGTTVTVSS VL: EIVLTQSPATLSLSPGERATLSCRASQSVYSYLAWYQQKPGQAPRLLIYDASNRATGIPARFSGSGSGTDFTLTISSLEPEDFAVYYCQQRSNWPPFTFGPGTKVDIKR
